Source: patent US20240218054A1 (MABLOC, published 2024)
Positions count from the first letter of the chain named.

B1: ADI-49154 (antibody, V domains shown)
VH: QVQLQESGPGLVKPSGTLSLTCAVSGSSITSSHWWSWVRQPPGKGLAWIGDIYHSGGTTYNPSLKSRVTISVDKSKNQFSLKLSSVTAADTAVYYCARVSVSTSAWYADYWGQGTLVTVSS
VL: QSVLTQPPSVSAAPGQKVTISCSGSSSNIGNNYVSWYQQLPGTAPKLLIYDNNKRPSGIPDRFSGSKSGTSATLGITGLQTGDEANYYCGTWDTSLSTVFGGGTKLTVL
notes: full-length IgG; also called Antibody Number 23
B2: ADI-45151 (antibody, V domains shown)
VH: EVQLLESGGGVVQPGKSLRLSCAASGFSFGDYGMHWVRQTPDKGLEWVAVILFDGSKKFYADSVRGRFTISRDNSKNNLYLQMSSLRPEDTAVYYCAKFPLRDGGSGEGFDYWGQGTLVTVSS
VL: DIVMTQTPLSSPVTLGQPASISCRSSQSLVHSDGNTYLSWLQQRPGQPPRFLIYKISNRFSGVPDRFSGGGAGTDFTLKISRVEAEDVGVYYCMQASQFPLTFGGGTKVEIK
notes: full-length IgG; also called Antibody Number 149
B3: ADI-42786 (antibody, V domains shown)
VH: EVQLVESGPGLVKPSGTLSLTCAVSGGSISSSYWWSWVRQSPGKGLEWIGEVYHSGSTHYNPSLKSRVTISVDKSKNQFSLKLTSVTAADTAVYYCARDGEGHYYRSGDNWFDRWGQGTLVTVSS
VL: QSVLTQPPSVSAAPGQKVTISCSGSSSNIGSNYVSWYQQFPGTAPKLLIYDNSKRPSGIPDRFSGSMSGTSATLGITGLQTGDEADYYCGTWDSSLSAVVFGGGTKVTVL
notes: full-length IgG; also called Antibody Number 15
B4: ADI-42188 (antibody, V domains shown)
VH: EVQLLESGPGLVKPSGTLSLTCAVSGGSISSGNWWSWVRQPPGKGLEWIGEIYHSGSANYNPSLKSRVTISVDKSKNQFSLKLTSVTAADTAVYYCARVVWEYSNAWCVDFWGQGTTVTVSS
VL: B3 VL with S31N, F40L, S53N, M67K, G90E, S97G, A98V, V107L
notes: full-length IgG; also called Antibody Number 32
B5: ADI-49188 (antibody, V domains shown)
VH: EVQLLESGPGLVRPSGTLSLTCAVSGGSISTTDWWSWVRQPPGKGLEWIGEINQSGSTSYSPSFKSRVSISVDKSKRQFSLKLTSVTAADTAVYYCARDSWSGPTRNWFDPWGRGTLVTVSS
VL: QSVVTQPPSVSAAPGQKVTISCSGRSSNIGNSDVSWYQQFPGRAPKLLIYDNDERPSGIPDRFSGSKSGTSATLDITGLQTGDEADYYCGTWDSSLGGVIFGGGTKVTVL
notes: full-length IgG; also called Antibody Number 31
B6: ADI-42201 (antibody, V domains shown)
VH: EVQLVESGGGVVQPGRSLRLSCVASGFTLRSYGMHWVRQVPGKGLEWVAVSWYDGSNKHYADSVKGRFSISRDNSKNTLYLQMNSLRAEDTAVYYCARAQDGQQLVNYYGMDVWGQGTTVTVSS
VL: DIQMTQSPSSLSASVGDRVTITCRASQSISSYLNWYQQKPGEAPNLLIFAASILQSGVPSRFSGSGSGTDFTLTISSLQPEDFATYYCQQSYSTPYTFGQGTKVEIK
notes: full-length IgG; also called Antibody Number 25
B7: ADI-50219 (antibody, V domains shown)
VH: QVQLQESGPGLVKPSETLSLTCTVSGDSISVSYWSWIRQFPGKGLEWIGYIYNSGNANYNPSLESRVTISIDTSKNRFSLRLSSVTAADTAVYYCAGHREDPYGAYGASWGQGTLVTVSS
VL: EIVLTQSPATLSSSPGERATLSCRASQSVNSYLVWYQQKPGQAPRLLIYDASNRATGIPARFTGSGSGTDFTLTISSLEPEDFAVYYCQQRTNWPFTFGQGTKVDIK
notes: full-length IgG; also called Antibody Number 27
B8: ADI-48897 (antibody, V domains shown)
VH: EVQLLESGPGLVKPSETLSLTCTVSGGSLSSDSHFWGWIRQPPGKGLEWIGYIYYSGNANYNPSLQSRVTISLDKSKNQFSLRLTSVTAADTAVYYCASRKEVRGTEDYFDYWGQGTLVTVSS
VL: B7 VL with S13L, S31R, V34A, T63S, Q89H, F96W, D105E
notes: full-length IgG; also called Antibody Number 28
B9: ADI-49030 (antibody, V domains shown)
VH: QVQLVQSGGGLVQPGGSLRLSCAASGFTFSDHYMDWVRQAPGKGLEWVGRTRNKANSYTTEYAASVKGRFTISRDDSKNSLYLQMNSLKTEDTAVYYCAGVGITGTTGIDYWGQGTLVTVSS
VL: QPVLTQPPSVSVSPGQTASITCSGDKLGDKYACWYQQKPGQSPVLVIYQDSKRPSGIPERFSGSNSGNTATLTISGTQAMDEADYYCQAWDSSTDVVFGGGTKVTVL
notes: full-length IgG; also called Antibody Number 151
B10: ADI-42144 (antibody, V domains shown)
VH: QVQLVESGGGVVQPGRSLRLSCAASGFTFSSYTMHWVRQAPGKGLEWVAVISYDGSNKYYADSVKGRFTISRDNSKNTLYLQMNSLRAEDTAVYYCARGGDYGDYESNNPAEYFQHWGQGTLVTVSS
VL: QSVLTQPPSVSGAPGQRVTISCTGSSSNIGAGYDVHWYQQLPGTAPKLLIYGNSNRPSGVPDRFSGSKSGTSASLAITGLQAEDEADYYCQSYDSSLSGHVVFGGGTKLTVL
notes: full-length IgG; also called Antibody Number 26
B11: ADI-49183 (antibody, V domains shown)
VH: QVQLVESGGGLVKPGGSLRLSCVASGFTFNNYYMRWMRQAPGKGLEWVSQISSSGSIKDYADSVKGRFTVSRDNAKNSLYLQLNSLRADDTAVYFCARELSSRIDYWGQGTLVTVSS
VL: QSALTQPASVSGSPGQSITISCTGTGSDVGGYNFVSWYQQHPGKAPKLMLYDVNNRPSGVSNRFSGSKSGNTASLTISGLQAEDEADYYCSSYPGTSALVIFGGGTRLTVL
notes: full-length IgG; also called Antibody Number 24
B12: ADI-50201 (antibody, V domains shown)
VH: QVQLVESGGGLVKPGGSLRLSCAASGFIFSDYYMNWIRQAPGKGLDWVSTISGSGKSIYYADSVKGRFTISRDNAKNSLYLQMNSLSAEDTAVYYCARVSPLDDGYGYTYYGMDVWGQGTTVTVSS
VL: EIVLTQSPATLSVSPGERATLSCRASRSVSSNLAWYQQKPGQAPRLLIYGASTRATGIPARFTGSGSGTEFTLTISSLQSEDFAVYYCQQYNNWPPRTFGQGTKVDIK
notes: full-length IgG; also called Antibody Number 17
B13: ADI-42194 (antibody, V domains shown)
VH: EVQLQESGPGLVKPSETLSLTCTVSGGSVSSGSYYWSWIRQPPGKGLEWIGYIYDSGNTNYNPSLKSRVTISVDTSKRQFSLRLTSVTAADTAVYYCAKVEEDGYTNVVRDYWGQGTLVTVSS
VL: EIVMTQSPATLSLSPGERATLSCRASQSVSNYLAWYQQKPGQAPRLLISDASSRATGIPARFRGSGSGTDFTLTISSLEPEDFAVYYCLQRTNWPFTFGPGTKVEIK
notes: full-length IgG; also called Antibody Number 29
B14: ADI-42228 (antibody, V domains shown)
VH: EVQLLESGGGLVQPGRSLRLSCAASGFTFDDYAMHWVRQPPGKGLEWVSGISWNGGGIGYADSVKGRFTISRDNAKNSLYLQMNSLRADDTALYYCAKAENRIGYCSAGSCYLTYFDYWGQGTLVTVSS
VL: QPVLTQPASVSGSPGQSITISCTGTSSDVGGYNYVSWYQQHPGKAPKLLIYDVSNRPSGVSNRFSGSKSANSASLTISGLQAEDEADYYCNSYTSSSTLVFGGGTKLTVL
notes: full-length IgG; also called Antibody Number 19
B15: ADI-45123 (antibody, V domains shown)
VH: EVQLLESGGGLVQPGGSLRLSCAASGFIFSNYWMSWVRQAPGKGLEWVANIKPDGSEKYYVESVRGRFTISRDNAKNSLYLQMNSLRAEDTAVFYCARDGGTVSDGLDVWGQGTTVTVSS
VL: DIRVTQSPSSLSASVGDRVTISCRASESISIYLNWYQQKPGKAPNLLIYAASSLQRGVPSRFSGSGSGTDFTLTITSLQAEDFATYYCQQTFSIWTFGQGTKVEIK
notes: full-length IgG
B16: ADI-49205 (antibody, V domains shown)
VH: EVQLVESGGGVVQTGRSLRLSCAASGFTFSISGMHWVRQAPGKGLEWVALIWYDGTKKYYADSVKGRFTISRDDFKNTVYLQMNSLRADDTAVYYCARIKSDAFDLWGQGTTVTVSS
VL: QSALTQPPSASGSPGQSVTISCTGTSSDVGGFNYVSWYQQHPGRAPKLVIYEVNRRPSGVPDRFSGSKSGYTASLTVSGLQAEDEADYYCFSYAGSNNYVFGTGTKVTVL
notes: full-length IgG; also called Antibody Number 148
B17: ADI-42190 (antibody, V domains shown)
VH: QVQLVESGGGLVKPGGSLRLSCAASGFTFSDDYMSWIRQAPGKGLEWVSYISGSGRAMYYADSVQGRFTVSRDNAKNSLFLQMNNLRAEDTAVYYCAKHTGDKPLVWAPSVYGLDVWGQGTTVTVSS
VL: QSVLTQPASVSGSPGQSITISCTGTSSDIGAYNYVSWYQQHPGKAPKLMIYDVTNRPSGVSNRFSGSKSGSSASLTISGLQTEDEADYYCSSYTRRSTLVFGGGTKLTVL
notes: full-length IgG; also called Antibody Number 22
B18: ADI-50200 (antibody, V domains shown)
VH: EVQLLESGGDLVQPGRSLRLSCAASGFNLIDYAMHWVRQVPGKGLEWVSGISWNSRSIGYADSVKGRFTISRDNAKNSLYLQMDSLKHEDTALFYCAKGAAAGPFPYFYYAMDVWGQGTTVTVSS
VL: DIQVTQSPSSLSASVGDRVTITCRASQGISNNLAWYQQKPGIFPKLLIYAASTLQSGVPSRFSGSGSGTDFILTISSLQPEDVATYYCQKYQSAPPTFGGGTKLEIK
notes: full-length IgG
B19: ADI-48895 (antibody, V domains shown)
VH: EVQLLESGGGLVKPGGSLRLSCAASGFTFSDYYMSWIRQAPGKGLEWVSYITSSGNTKYYADSVKGRFTISRDNAKNSLYLQISSLRAEDTAVYYCARDWAELTTITNYFYPWGQGTTVTVSS
VL: DIQLTQSPSSVSASVGDRVTITCRASQGISSWLAWYQQKPGKAPKLLIHAASSLQSGVPSRFSGSGSGTDFTLTISSLQPEDFATYYCQQAKSFPPTFGQGTRLEIK
notes: full-length IgG; also called Antibody Number 18
B20: ADI-50533 (antibody, V domains shown)
VH: QVQLQESGPGLVKPSGTLSLTCAVSGGSISSSNWWSWVRQPPGKGLEWIGEIYHSGSTNYNPSLKSRVTISVDKSKNQFSLKLSSVTAADTAVYYCARVVWYSSSSHLFDYWGQGTLVTVSS
VL: QPVLTQPPSVSAAPGQKVTISCSGSSSNIGNNYVSWYQQLPGTAPKLLIYDNNKRPSGIPDRFSGSKSGTSATLGITGLQTGDEADYYCGTWDSSLSAGKVFGGGTKLTVL
notes: full-length IgG; also called Antibody Number 147
B21: ADI-42198 (antibody, V domains shown)
VH: EVQLVESGPGLVKPSGTLSLTCAVSGGSISSNKWWSWVRQPPGKGLEWIGEIYHSGSTSYNPSLKSRVSISVDKSKNQFSLKLSSVTAADTAVYYCARVEWAYSSSWWLDYWGQGTLVTVSS
VL: B20 VL with P2S, Y88I, S94T, K100G
notes: full-length IgG; also called Antibody Number 21
B22: ADI-42210 (antibody, V domains shown)
VH: EVQLLESGPGLVQPSGTLSLTCTASGGSISSSNWWSWVRQPPGKGLEWIGDIYHTGSTSYNPSLKSRVTISVDKSKNQFSLKLSSVTAADTAVYYCARAELSAWYYFDHWGQGTLVTVSS
VL: B20 VL with P2S, S94T, K100R
notes: full-length IgG; also called Antibody Number 16
B23: ADI-49189 (antibody, V domains shown)
VH: EVQLVESGGGLVKPGGSLRLSCAASGFTFSDYYMSWIRQAPGKGLECIACISSSGSMIYYADSVKGRFTISRDNAKNSLYLQLNSLRVEDTAVYYCAREGTRGRMDWGQGTLVTVSS
VL: QSVLTQPASVSGSPGQSITISCTGTSSDIGGYNYVSWYQQHPGKVPKLVIYDVSNRPSGVSNRFSGSKSGNTASLTISGLQAEDEADYYCSSYTSGTTLGVFGTGTKLTVL
notes: full-length IgG; also called Antibody Number 30

Molecular target: T1, recombinant YFV E protein (soluble E, sE; YFV Asibi strain) (Yellow fever virus, Asibi strain, UniProt Q6DV88 286-678)
T1 construct: also called YFV E antigen; YFV E monomer
T1 sequence (Q6DV88 286-678): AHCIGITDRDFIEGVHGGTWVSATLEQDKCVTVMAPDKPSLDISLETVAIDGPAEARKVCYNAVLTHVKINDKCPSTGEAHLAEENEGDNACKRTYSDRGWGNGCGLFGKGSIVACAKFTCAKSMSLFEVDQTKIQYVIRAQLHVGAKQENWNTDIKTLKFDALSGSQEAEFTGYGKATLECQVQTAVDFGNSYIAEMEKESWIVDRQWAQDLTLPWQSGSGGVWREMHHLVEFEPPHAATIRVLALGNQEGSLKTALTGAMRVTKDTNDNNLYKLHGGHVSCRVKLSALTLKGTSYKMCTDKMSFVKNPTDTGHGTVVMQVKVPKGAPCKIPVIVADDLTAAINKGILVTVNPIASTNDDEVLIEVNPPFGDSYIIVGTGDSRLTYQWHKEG
Assay: BLI monovalent (IgG on tip)

Binder | Kd [nM]
B1 | 141
B2 | > 100
B3 | 12.7
B4 | 37.1
B5 | 9.54
B6 | 113
B7 | 0.859
B8 | 3.22
B9 | 125
B10 | 10.9
B11 | 2.21
B12 | 13.1
B13 | 5.44
B14 | 8.64
B15 | 2.1
B16 | 12.9
B17 | 13.1
B18 | > 100
B19 | 4.49
B20 | > 100
B21 | 33.2
B22 | 18.7
B23 | 12.7
